{
  "source": "patent US20250101074A1",
  "about": "(Affibody, published 2025)",
  "assay_in_all_cases": "SPR (Biacore), PEP07843 immobilized, analyte protein injected",
  "key": {"human IL-17A": {"molecular_target": "T1, human IL-17A (human, UniProt Q16552 20-155)", "T1 construct": "Peprotech cat. no; 200-17; homodimeric cytokine; biotinylated with Sulfo-NHS-LC-Biotin for the ELISAs; also called hIL-17A; rhIL-17A", "T1 sequence": "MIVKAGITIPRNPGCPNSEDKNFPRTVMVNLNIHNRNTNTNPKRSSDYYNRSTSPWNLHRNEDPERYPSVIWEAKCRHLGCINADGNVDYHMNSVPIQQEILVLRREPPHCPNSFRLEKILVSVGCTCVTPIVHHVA", "experimental": "(§1) In the binding experiment, HBS-EP was used as running buffer and the flow rate was 30 μl/min. […] The analytes, i.e. the panels of 24 or 12 different proteins, were each diluted in HBS-EP or HBS-EP supplemented with 500 mM NaCl to final concentrations of from 0.4 to 250 nM and injected for 5 min. […] The results were analyzed using the BiaEvaluation software.\n(§2) The Z-ABD-Z polypeptides were injected over surfaces containing HSA followed by injection of the analyte proteins."}, "hIL-17D": {"molecular_target": "T2, hIL-17D (human, UniProt Q8TAD2 18-202, limits assumed)", "T2 sequence (looked up)": "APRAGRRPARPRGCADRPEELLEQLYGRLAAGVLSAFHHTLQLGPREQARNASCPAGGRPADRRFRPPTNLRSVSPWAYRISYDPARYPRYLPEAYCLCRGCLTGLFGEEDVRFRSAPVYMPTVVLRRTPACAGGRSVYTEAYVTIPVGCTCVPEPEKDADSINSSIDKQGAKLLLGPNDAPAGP", "experimental": "as §1, §2"}, "hGM-CSF": {"molecular_target": "hGM-CSF (human, UniProt P04141 18-144)", "sequence (P04141 18-144 limits assumed)": "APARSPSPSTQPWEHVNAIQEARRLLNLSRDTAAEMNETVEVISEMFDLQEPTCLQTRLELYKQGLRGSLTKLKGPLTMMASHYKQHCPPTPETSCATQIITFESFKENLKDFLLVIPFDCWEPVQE", "experimental": "as §1, §2"}, "IL-17RA": {"molecular_target": "T3, IL-17RA (UniProt Q96F46 33-320)", "T3 sequence (looked up)": "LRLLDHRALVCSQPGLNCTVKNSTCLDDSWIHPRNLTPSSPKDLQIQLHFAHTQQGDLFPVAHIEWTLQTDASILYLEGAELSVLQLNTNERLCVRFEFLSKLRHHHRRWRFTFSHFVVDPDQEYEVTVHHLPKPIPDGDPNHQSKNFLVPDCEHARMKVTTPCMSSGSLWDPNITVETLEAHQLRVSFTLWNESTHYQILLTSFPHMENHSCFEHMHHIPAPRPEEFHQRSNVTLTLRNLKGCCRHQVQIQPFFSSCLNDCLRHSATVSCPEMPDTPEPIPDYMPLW", "experimental": "as §1, §2"}, "human IL-17F": {"molecular_target": "T4, human IL-17F (human, UniProt Q96PD4 31-163)", "T4 construct": "R&D Systems cat. no; 1335-IL/CF; also called hIL-17F", "T4 sequence": "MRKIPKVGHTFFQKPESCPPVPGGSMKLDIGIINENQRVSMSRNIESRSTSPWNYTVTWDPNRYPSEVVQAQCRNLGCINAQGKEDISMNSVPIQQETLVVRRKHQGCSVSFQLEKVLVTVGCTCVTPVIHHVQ", "experimental": "as §1, §2"}, "[1]": {"molecular_target": "T5, Alpha-2-HS-glycoprotein (AHSG Human HEK) (human, UniProt P02765 19-367, limits assumed)", "T5 sequence (looked up)": "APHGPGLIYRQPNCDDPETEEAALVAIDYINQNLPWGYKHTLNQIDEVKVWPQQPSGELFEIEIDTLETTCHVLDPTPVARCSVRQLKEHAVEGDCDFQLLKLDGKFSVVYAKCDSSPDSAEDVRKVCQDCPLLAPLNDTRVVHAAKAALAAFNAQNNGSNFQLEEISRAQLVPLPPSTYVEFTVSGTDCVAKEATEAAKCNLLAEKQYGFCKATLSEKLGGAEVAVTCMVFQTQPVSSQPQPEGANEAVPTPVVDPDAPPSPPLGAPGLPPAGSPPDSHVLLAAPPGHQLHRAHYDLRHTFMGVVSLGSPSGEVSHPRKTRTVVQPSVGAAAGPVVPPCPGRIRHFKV", "experimental": "as §1, §2"}, "[2]": {"molecular_target": "T6, AMBP/Alpha1 microglobulin (UniProt P02760 20-203, limits assumed)", "T6 sequence (looked up)": "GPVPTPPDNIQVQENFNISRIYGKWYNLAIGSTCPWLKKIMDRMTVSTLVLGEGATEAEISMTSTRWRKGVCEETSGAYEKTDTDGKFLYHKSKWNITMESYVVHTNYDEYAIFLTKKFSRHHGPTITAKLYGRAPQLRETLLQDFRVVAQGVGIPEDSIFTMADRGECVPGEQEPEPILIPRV", "experimental": "as §1, §2"}, "Beta-2-microglobulin/B2M": {"molecular_target": "Beta-2-microglobulin/B2M (UniProt P61769 21-119)", "sequence (P61769 21-119 limits assumed)": "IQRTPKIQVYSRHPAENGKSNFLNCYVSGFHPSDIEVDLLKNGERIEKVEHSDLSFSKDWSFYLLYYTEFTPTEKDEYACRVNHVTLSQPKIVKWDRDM", "experimental": "as §1, §2"}, "[3]": {"molecular_target": "Transthyretin/TTR/Prealbumin/PALB Protein (UniProt P02766 21-147)", "experimental": "as §1, §2"}, "holo-Transferrin": {"molecular_target": "holo-Transferrin (UniProt P02787 20-698)", "sequence (P02787 20-698 limits assumed)": "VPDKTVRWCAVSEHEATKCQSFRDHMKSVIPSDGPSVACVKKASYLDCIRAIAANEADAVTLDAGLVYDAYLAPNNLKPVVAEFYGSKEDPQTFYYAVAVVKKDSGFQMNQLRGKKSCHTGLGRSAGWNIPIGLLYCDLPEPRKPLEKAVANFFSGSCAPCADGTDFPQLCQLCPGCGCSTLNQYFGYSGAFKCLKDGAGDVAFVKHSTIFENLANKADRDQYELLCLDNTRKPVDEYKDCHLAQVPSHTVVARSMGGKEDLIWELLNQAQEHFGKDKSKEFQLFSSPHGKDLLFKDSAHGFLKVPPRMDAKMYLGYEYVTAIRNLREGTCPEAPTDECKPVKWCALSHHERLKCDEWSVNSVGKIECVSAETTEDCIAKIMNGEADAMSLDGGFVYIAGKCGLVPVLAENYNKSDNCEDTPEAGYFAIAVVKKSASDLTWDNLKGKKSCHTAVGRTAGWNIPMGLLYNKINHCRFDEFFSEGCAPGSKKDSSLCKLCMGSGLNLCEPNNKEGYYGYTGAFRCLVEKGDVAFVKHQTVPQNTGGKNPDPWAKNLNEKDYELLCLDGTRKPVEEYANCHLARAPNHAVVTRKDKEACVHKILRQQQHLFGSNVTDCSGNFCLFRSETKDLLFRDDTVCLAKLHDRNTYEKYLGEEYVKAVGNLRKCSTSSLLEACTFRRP", "experimental": "as §1, §2"}, "[4]": {"molecular_target": "T7, human IL-17A/F heterodimer (human, UniProt Q16552 20-155; Q96PD4 31-163, limits assumed)", "T7 construct": "bought; also called hIL-17A/F", "T7 sequence (looked up) 1": "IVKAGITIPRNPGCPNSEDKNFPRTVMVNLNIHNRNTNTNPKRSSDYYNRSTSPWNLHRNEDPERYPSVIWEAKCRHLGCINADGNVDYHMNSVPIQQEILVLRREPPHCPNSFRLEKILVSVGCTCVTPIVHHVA", "T7 sequence (looked up) 2": "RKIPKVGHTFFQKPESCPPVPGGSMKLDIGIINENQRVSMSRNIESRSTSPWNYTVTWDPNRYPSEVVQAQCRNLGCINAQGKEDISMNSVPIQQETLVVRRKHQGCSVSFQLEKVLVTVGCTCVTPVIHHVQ", "experimental": "as §1, §2"}, "hIL-17B": {"molecular_target": "T8, hIL-17B (human, UniProt Q9UHF5 21-180)", "T8 sequence (looked up)": "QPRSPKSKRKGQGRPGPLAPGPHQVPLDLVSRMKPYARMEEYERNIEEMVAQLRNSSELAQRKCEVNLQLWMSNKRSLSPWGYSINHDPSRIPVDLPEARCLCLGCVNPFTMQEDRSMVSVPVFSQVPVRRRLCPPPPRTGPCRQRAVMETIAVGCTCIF", "experimental": "as §1, §2"}},
  "data": [
    {"binder": "GSSLAEAKEAANAELDSYGVSDFYKRLIDKAKTVEGVEALKDAILAALP (designed binder)", "note": "[ABD variant PEP07843]", "values": [
      {"measurement": "binding result", "setting": "human IL-17A", "value": "no binding (tested: 2, 10, 50 nM)"},
      {"measurement": "binding result", "setting": "hIL-17D", "value": "no binding (tested: 50, 250 nM)"},
      {"measurement": "binding result", "setting": "hGM-CSF", "value": "no binding (tested: 50, 250 nM)"},
      {"measurement": "binding result", "setting": "IL-17RA", "value": "no binding (tested: 50, 250 nM)"},
      {"measurement": "binding result", "setting": "human IL-17F", "value": "no binding (tested: 50, 250 nM)"},
      {"measurement": "binding result", "setting": "[1]", "value": "no binding (tested: 50, 250 nM)"},
      {"measurement": "binding result", "setting": "[2]", "value": "no binding (tested: 50, 250 nM)"},
      {"measurement": "binding result", "setting": "Beta-2-microglobulin/B2M", "value": "no binding (tested: 50, 250 nM)"},
      {"measurement": "binding result", "setting": "[3]", "value": "no binding (tested: 50, 250 nM)"},
      {"measurement": "binding result", "setting": "holo-Transferrin", "value": "no binding (tested: 50, 250 nM)"},
      {"measurement": "binding result", "setting": "[4]", "value": "no binding (tested: 50, 250 nM)"},
      {"measurement": "binding result", "setting": "hIL-17B", "value": "no binding (tested: 50, 250 nM)"}
    ]}
  ]
}
